# Laboratory results from patent US20040254351A1 (published 2004).
# Substitutions are numbered along the chain they refer to. Names may count otherwise.
# T1: G-CSF receptor
# T1 sequence (Q99062 whole entry, species assumed, looked up): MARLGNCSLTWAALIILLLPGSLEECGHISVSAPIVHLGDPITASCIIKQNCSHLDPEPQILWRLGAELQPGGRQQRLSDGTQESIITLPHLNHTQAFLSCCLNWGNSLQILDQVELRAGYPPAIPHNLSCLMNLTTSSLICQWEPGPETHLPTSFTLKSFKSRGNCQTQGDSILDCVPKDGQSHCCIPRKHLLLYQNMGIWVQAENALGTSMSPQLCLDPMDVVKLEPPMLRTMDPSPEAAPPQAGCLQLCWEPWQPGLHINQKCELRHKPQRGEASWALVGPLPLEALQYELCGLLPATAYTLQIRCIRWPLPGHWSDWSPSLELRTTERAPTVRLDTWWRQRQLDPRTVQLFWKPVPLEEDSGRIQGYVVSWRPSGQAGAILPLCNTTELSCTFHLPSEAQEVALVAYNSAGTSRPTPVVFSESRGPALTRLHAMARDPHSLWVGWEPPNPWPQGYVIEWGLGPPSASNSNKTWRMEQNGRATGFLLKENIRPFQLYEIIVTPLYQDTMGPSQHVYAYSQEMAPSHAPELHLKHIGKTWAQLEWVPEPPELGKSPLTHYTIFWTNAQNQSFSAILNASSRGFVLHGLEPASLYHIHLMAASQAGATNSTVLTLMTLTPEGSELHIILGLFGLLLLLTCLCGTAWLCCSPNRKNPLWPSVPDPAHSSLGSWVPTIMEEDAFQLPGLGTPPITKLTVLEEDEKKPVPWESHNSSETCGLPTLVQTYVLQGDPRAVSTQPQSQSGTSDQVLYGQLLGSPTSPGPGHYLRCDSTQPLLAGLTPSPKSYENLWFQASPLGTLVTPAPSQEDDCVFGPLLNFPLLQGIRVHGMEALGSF
# B1: G-CSF[E93N,I95T] (ligand)
# chain: TPLGPASSLPQSFLLKALEQVRKIQGDGAALQEKLCATYKLCHPEELVLLGHSLGIPWAPLSSCPSQALQLAGCLSQLHSGLFLYQGLLQALNGTSPELGPTLDTLQLDVADFATTIWQQMEELGMAPALQPTQGAMPAFASAFQRRAGGVLVASHLQSFLEVSYRVLRHLAQP
# modifications: consensus N-linked glycosylation site at Asn 93 (region 10)
# B2: G-CSF[A37N,Y39T,P57V,W58N,P60T,Q67N,L69T] (ligand)
# chain: B1 chain with A37N, Y39T, P57V, W58N, P60T, Q67N, L69T, N93E, T95I
# modifications: consensus N-linked glycosylation sites at Asn 37, Asn 58 and Asn 67 (regions 1, 2 and 9)
# B3: G-CSF[A37N,Y39T,S63N,P65T,E93N,I95T] (ligand)
# chain: B1 chain with A37N, Y39T, S63N, P65T
# modifications: consensus N-linked glycosylation sites at Asn 37, Asn 63 and Asn 93 (regions 1, 7 and 10)
# B4: G-CSF[T133N,G135T] (ligand)
# chain: B1 chain with N93E, T95I, T133N, G135T
# modifications: consensus N-linked glycosylation site at Asn 133 (region 13), replacing the O-linked site
# B5: G-CSF[A141N,A143T] (ligand)
# chain: B1 chain with N93E, T95I, A141N, A143T
# modifications: consensus N-linked glycosylation site at Asn 141 (region 14)
# B6: G-CSF[A37N,Y39T] (ligand)
# chain: B1 chain with A37N, Y39T, N93E, T95I
# modifications: consensus N-linked glycosylation site at Asn 37 (region 1)
# B7: G-CSF[P60N,S62T] (ligand)
# chain: B1 chain with P60N, S62T, N93E, T95I
# modifications: consensus N-linked glycosylation site at Asn 60 (region 4)
# B8: G-CSF[S63N,P65T] (ligand)
# chain: B1 chain with S63N, P65T, N93E, T95I
# modifications: consensus N-linked glycosylation site at Asn 63 (region 7)
# B9: G-CSF[P57V,W58N,P60T] (ligand)
# chain: B1 chain with P57V, W58N, P60T, N93E, T95I
# modifications: consensus N-linked glycosylation site at Asn 58 (region 2)
# B10: G-CSF[Q67N,L69T] (ligand)
# chain: B1 chain with Q67N, L69T, N93E, T95I
# modifications: consensus N-linked glycosylation site at Asn 67 (region 9)
# Target: T1, G-CSF receptor
# Assay: cell-based or functional assay
row,Binder,EC50/Neupogen (reporter activity in cells expressing the G-CSF receptor)
1,B1,0.36 ratio to Neupogen
2,B2,0.53 ratio to Neupogen
3,B3,0.97 ratio to Neupogen
4,B4,0.37 ratio to Neupogen
5,B5,0.54 ratio to Neupogen
6,B6,0.8 ratio to Neupogen
7,B7,0.94 ratio to Neupogen
8,B8,0.9 ratio to Neupogen
9,B9,0.59 ratio to Neupogen
10,B10,0.78 ratio to Neupogen
